The values below come from patent US20260317410 (published 2026).

One test has as its target T1, Fc-Nectin-4 IgV (human, UniProt Q96NY8).
T1 chain: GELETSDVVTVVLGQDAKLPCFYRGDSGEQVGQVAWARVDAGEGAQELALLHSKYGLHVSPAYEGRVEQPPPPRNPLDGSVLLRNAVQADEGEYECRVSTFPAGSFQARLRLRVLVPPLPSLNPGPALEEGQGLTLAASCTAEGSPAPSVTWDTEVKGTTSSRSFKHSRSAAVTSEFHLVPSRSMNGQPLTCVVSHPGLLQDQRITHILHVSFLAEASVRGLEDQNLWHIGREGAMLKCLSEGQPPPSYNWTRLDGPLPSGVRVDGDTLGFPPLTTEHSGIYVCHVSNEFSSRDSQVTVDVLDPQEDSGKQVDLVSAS
As to the kind of experiment: BLI, 26C, bivalent analyte. On the technique in general: Biolayer interferometry detects binding as a change in optical thickness at a sensor tip.

The target in the next test is T2, His-Nectin-4 ECD (human, UniProt Q96NY8).
T2 chain: T1 chain
Briefly: BLI, 26C.

B1: HA22 (Enfortumab) (antibody, V domains shown)
VH: EVQLVESGGGLVQPGGSLRLSCAASGFTFSSYNMNWVRQAPGKGLEWVSYISSSSSTIYYADSVKGRFTISRDNAKNSLSLQMNSLRDEDTAVYYCARAYYYGMDVWGQGTTVTVSS
VL: DIQMTQSPSSVSASVGDRVTITCRASQGISGWLAWYQQKPGKAPKFLIYAASTLQSGVPSRFSGSGSGTDFTLTISSLQPEDFATYYCQQANSFPPTFGGGTKVEIK
Regarding B1, the Kd in the test with Fc-Nectin-4 IgV worked out at 12.9 nM; in the test with His-Nectin-4 ECD, 5.2 nM.
